Ends that are not written are not given here. Texas Red = Texas Red fluorescent dye

This is an account of results in US12013397B2, “Compositions and methods for determining cancer prognosis” (CASE WESTERN RESERVE UNIVERSITY, priority 2019, dated 2024).

One experiment deals with GBM tissue. Conditions: cited from earlier work.
For experiment [1], the target named is T1, proteolytically cleaved extracellular fragments of PTPμ (Homo sapiens, UniProt P28827).
T1 construct: from tissue; host or cells: formalin-fixed, paraffin-embedded human glioma patient tumor tissue (TMAs and slides)
T1 sequence (P28827 21-742 limits assumed): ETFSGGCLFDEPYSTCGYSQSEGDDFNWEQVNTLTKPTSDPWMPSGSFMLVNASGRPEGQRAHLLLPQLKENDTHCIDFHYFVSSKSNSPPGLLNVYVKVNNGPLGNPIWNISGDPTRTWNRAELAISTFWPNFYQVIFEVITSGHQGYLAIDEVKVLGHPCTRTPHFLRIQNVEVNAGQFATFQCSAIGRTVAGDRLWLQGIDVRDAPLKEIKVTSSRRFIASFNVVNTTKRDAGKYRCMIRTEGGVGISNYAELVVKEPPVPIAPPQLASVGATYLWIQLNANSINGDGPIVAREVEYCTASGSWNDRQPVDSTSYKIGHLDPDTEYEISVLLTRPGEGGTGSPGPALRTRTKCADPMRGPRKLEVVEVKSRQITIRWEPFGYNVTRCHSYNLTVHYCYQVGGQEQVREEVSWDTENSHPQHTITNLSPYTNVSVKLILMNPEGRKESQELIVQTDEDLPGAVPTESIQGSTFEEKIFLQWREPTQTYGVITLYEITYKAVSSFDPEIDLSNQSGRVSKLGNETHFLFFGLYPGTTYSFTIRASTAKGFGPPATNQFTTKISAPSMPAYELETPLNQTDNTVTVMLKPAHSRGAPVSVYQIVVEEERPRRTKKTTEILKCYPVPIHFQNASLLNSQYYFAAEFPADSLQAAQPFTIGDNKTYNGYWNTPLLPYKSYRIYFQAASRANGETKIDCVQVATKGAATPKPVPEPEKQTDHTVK
Briefly: SBK4-TR staining of human glioma tissue microarrays and slides. The class given is binding. From the text:
The SBK4 peptide used for immunohistochemistry was synthesized as described. The N-terminal glycine of SBK4 peptide was coupled to Texas Red (TR; Molecular Probes Inc, Eugene Oreg.) as described to make the fluorescent agent. Anti-IDH1 R132H Monoclonal Antibody clone H09 (American Research Products [Dianova GmbH], Waltham, Mass.) reacts specifically with the isocitrate dehydrogenase 1 (IDH1) R132H point mutation in tissue sections from formalin-fixed brain tumor specimens.
Patient tumor samples were obtained, formalin-fixed, and paraffin-embedded for analysis. Some samples were incorporated into tissue microarrays (TMAs) and some samples were placed on individual slides. Together, these TMAs and slides represented samples from 94 glioma patients (25 adolescent and young adult and 69 adult) with astrocytomas (n=12), oligodendroglioma (n=14), oligoastrocytoma (n=7), and GBM (n=61). Tissue staining with SBK4-TR has been described. […] Antibody binding was detected using MACH4 horseradish peroxidase (Biocare, Pacheco, Calif.) and diaminobenzidine was used as chromogenic substrate. […]
Tissue staining intensity for both PTPμ and IDH1 biomarkers was quantified by blinded observers. […] For IDH1, samples were scored as either positive for the mutation or negative as it is done clinically.

In another experiment the target is T2, PTPμ biomarker (Homo sapiens, UniProt P28827).
T2 construct: from tissue; host or cells: formalin-fixed, paraffin-embedded human gynecologic cancer and normal tissue, and patient-derived xenograft sections
Put plainly: SBK4-TR staining of human gynecologic cancer, normal and PDX tissue (Image J quantification). Type of experiment: binding. The source says:
The SBK4 peptide used for tissue staining was synthesized as described. The N-terminal glycine of SBK4 peptide was coupled to Texas Red (TR; Molecular Probes Inc, Eugene, Oreg., USA) as described to make the fluorescent agent. Anti-p53 Monoclonal or Ki-67 antibodies were used to counterstain tissue sections, to indicate nuclear staining of p53 typical in high-grade serous ovarian carcinoma.
All samples used for this study were obtained from the Difeo and Avril labs. The Avril group generated tissue microarrays of several gynecologic cancers (TMAs) to facilitate screening a large number of patient biopsy tissues. The Difeo lab generated TMAs that included sections from patient derived xenografts (PDXs) matched to original patient tumor tissue sections. Additional individual biopsy and normal tissue samples were stained as individual slides. Together, these TMAs and slides represented samples from 73 patients (49 with gynecologic cancer, 22 sections from patients without cancer, and 2 patients with gynecologic cancer tissue and control tissue samples collected). The following gynecologic cancer types were represented in the dataset: endometrial clear cell carcinoma (n=3), endometrial endometrioid carcinoma (n=18), endometrial high-grade serous carcinoma (n =6), endometrial leiomyosarcoma (n=1), endometrial undifferentiated carcinoma (n=1), endometrial undifferentiated sarcoma (n=1), neuroendocrine tumor of the uterus (small cell) (n=1), ovarian carcinosarcoma (n=1), ovarian borderline serous (n=1), ovarian high-grade villoglandular carcinoma (n=1), ovarian high-grade serous carcinoma (n=16), ovarian endometrioid carcinoma (n=1).
Tissue staining with SBK4-TR was described. Positive controls (GBM) and negative controls (Epilepsy) were tested with the TMAs or individual slides. Tumor samples were obtained formalin-fixed and paraffin-embedded. Prior to staining, the TMAs or slides were deparaffinized and blocked with 2% goat serum in phosphate buffered saline (PBS) for 20 min at room temperature (RT). The samples were then incubated with SBK4-TR agent diluted in 2% goat serum in PBS at RT for 1 hr in the dark. Following a PBS rinse, the TMAs or slides were coverslipped with Vectashield Hard Set Mounting Medium (Vector Laboratories, Inc., Burlingame, Calif., USA) and imaged on a Hamamatsu Nanozoomer S60 slide scanner (Bridgewater, N.J., USA). Some samples were also stained for the IDH1 mutation. Tissue staining for both PTPμ was quantified using Image J.

T2 sequence (P28827 21-1452): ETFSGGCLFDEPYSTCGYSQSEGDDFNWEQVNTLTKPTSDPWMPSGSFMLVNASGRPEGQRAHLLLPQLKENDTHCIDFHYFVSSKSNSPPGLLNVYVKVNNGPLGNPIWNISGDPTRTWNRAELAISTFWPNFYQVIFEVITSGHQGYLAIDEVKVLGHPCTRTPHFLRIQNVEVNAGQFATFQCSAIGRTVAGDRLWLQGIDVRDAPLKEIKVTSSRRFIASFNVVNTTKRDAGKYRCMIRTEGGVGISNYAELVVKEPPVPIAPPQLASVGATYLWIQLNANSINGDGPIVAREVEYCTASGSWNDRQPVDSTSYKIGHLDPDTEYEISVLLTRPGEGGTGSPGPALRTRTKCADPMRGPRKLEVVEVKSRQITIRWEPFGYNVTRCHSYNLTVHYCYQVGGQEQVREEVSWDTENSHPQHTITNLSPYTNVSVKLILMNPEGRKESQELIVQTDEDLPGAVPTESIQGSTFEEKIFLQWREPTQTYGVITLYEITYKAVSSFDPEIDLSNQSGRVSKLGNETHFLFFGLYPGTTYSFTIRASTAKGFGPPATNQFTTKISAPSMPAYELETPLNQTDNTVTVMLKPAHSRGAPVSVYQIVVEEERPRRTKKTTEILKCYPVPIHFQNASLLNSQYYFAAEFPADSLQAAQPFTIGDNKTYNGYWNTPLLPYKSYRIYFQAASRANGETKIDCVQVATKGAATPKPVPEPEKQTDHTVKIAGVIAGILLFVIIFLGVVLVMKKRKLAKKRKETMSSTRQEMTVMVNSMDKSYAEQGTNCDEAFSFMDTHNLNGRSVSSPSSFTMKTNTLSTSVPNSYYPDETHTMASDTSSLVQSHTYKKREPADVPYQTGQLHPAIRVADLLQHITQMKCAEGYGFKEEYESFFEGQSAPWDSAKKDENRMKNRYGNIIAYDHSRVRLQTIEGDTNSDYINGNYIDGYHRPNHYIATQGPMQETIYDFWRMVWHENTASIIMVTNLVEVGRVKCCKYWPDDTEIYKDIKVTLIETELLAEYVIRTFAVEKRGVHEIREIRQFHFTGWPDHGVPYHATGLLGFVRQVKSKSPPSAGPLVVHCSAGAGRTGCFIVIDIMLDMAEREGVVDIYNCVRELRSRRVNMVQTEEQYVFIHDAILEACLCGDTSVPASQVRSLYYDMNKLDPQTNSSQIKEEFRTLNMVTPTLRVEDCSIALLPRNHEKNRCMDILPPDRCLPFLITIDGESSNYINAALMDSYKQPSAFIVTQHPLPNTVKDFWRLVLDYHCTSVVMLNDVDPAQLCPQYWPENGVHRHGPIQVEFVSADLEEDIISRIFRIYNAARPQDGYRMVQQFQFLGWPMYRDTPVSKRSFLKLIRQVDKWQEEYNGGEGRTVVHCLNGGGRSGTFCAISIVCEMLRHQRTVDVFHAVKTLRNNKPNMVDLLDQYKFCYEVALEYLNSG

For `NCC(=O)CCC(=O)O` [5-ALA, 5-aminolevulinic acid], the “labeling the dispersive GBM tumor border” value with GBM tissue (in vivo) is “less effective”. The “six month progression-free survival” value in the experiment on GBM tissue (surgical resection of GBM) is recorded as “improvement”. Moreover, the “extent of tumor resection” value with GBM tissue (surgical resection of GBM, versus 36% with white light alone) is 65%.
Turning to “SBK4-TR: SBK4 peptide (SEQ ID NO: 7) conjugated to Texas Red ({Texas Red}-GIDVRDAPLKEIKVTSSR)”, the “PTPμ staining of the tumor samples” value in experiment [1] (formalin-fixed paraffin-embedded glioma samples, fluorescent microscope) was “variable PTPμ staining”. In experiment [1] (low- and high-grade glioma tissue), the “labeling of glioma tissue by grade” value is “labels both low- and high-grade glioma tissue”. The “SBK4-TR staining of tumor tissue compared to control tissue” value with PTPμ biomarker (endometrial endometrioid cancer, high-grade serous endometrial carcinoma, endometrial clear cell carcinoma, small sample sizes) is on record as “did not have statistically significantly higher SBK4-TR staining than control tissue”. The “staining observed within the TMAs” value with PTPμ biomarker (gynecologic cancer TMAs) is recorded as “varied amongst individual patients”. In addition, the “SBK4-TR labeling of tumor tissue compared to normal tissue” value in the experiment with PTPμ biomarker (high-grade serous ovarian carcinoma vs normal ovary or normal fallopian tube) was “statistically significantly higher staining”. For the same compound, in the experiment with PTPμ biomarker (matched patient tumor and PDX tumors, all samples), the “SBK4-TR labeling of PDX tissue compared to original patient tumor tissue” value is given as “PDX tissue had higher levels of SBK4-TR labeling than the original patient tumor tissue”. The “correspondence of sites of high SBK4-TR labeling with p53 and Ki-67 staining” value with PTPμ biomarker (patient with multiple lesions) was “correspond to areas of high p53 and Ki-67 staining”.
